Data from patent publication US20260139032A1.

Target: T1, BMP-9 (UniProt Q9UK05)
T1 sequence (looked up): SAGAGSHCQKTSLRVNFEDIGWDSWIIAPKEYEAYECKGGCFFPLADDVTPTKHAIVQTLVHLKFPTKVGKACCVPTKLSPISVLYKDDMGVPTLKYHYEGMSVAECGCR
Assay: cell-based or functional assay

Row | BMP-9 IC50 (nM), BMP-reporter HepG2 cell-based assay [nM] | fold decrease of inhibition potency on BMP-9, BMP-reporter HepG2 assay [fold] | Substance
1 | 485 | > 100 | P1193 (hActRIIB L33Y F58E, 10 aa linker, IgG1-DL Fc) (Fc fusion)
2 | 667 | > 100 | P1198 (hActRIIB L33Q F58E, 3 aa GGG linker, IgG1-DL Fc) (Fc fusion)
